The subject of the data set is Terminal deoxynucleotidyl transferase (TdT, pCMV-TdT / pMTdT). Kind of data set: cell_activity. Conditions: wild-type CHO KA8 cells, 19 of 27 clones, I-SceI-cleaved ends; 4% without TdT; N addition absent in Ku80- or XRCC4-deficient cells.

The sequence TACCCTGTTATCCCTA (double strand) registered an activity (% junctions with N additions) of 70.
